Results: PMC10325919, “A potential histone-chaperone activity for the MIER1 histone deacetylase complex” (Nucleic Acids Research, 2023)
Starred links: 1 amine or outer side, 2 acyl side, 3 side chain; linkers in the order of their positions; H or OH if unused. Non-standard residues stand in square brackets, D forms with d. No end group written: not given here. Lys(Me3) = C[N+](C)(C)CCCC[C@H](N)C(=O)O; Ethylenediamine = C(CN[*:2])N[*:1]; 5‑FAM = 5-carboxyfluorescein; GABA = NCCCC(=O)O

T1: E. coli expressed BAHD1(aa:588–780) (UniProt Q8TBE0 588-780)
T1 construct: BAHD1, BAH domain, aa 588-780; also called BAH domain of BAHD1; source: E. coli expressed
T1 sequence (looked up): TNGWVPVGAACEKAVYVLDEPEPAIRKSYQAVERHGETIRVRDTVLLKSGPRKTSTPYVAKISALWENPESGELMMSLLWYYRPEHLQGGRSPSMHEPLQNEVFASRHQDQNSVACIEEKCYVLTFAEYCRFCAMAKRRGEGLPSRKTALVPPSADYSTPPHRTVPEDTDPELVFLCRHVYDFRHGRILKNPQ


Assays:
[1] = target: Full length HDAC1(aa:1–482) (UniProt Q13547 1-482); assay: co-IP + SEC; FLAG-tagged bait transfected in HEK293F (with untagged partners where stated); lysate on anti-FLAG M2 resin, washed in 50 mM Tris/HCl pH 7.5, 50 mM potassium acetate, eluted by TEV protease, then Superdex S200 gel filtration; fractions on SDS-PAGE, bands identified by mass spectrometry; settings: partners not purified
Chain of Full length HDAC1(aa:1–482) (Q13547 whole entry): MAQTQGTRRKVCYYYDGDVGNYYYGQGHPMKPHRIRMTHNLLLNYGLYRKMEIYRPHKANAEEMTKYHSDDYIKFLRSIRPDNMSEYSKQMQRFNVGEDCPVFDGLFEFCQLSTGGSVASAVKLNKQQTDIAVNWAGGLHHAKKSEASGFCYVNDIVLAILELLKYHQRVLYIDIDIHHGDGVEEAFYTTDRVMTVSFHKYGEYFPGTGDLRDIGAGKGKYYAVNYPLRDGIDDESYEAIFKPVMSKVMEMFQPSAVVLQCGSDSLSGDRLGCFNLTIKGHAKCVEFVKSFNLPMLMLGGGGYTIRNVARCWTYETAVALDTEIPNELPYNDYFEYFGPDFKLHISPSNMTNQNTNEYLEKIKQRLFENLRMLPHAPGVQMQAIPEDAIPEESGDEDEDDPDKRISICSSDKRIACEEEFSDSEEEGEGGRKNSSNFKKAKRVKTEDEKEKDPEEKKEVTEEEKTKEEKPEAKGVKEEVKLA

[2] = target: T1, E. coli expressed BAHD1(aa:588–780); assay: fluorescence polarisation; 5 nM 5-FAM labelled histone peptide, BAHD1(aa:588–780) 0–142 μM, 25 mM Tris/Cl pH 7.5, 50 mM NaCl, 15 min at 37°C; one-site binding model; settings: both partners purified

binding result [1] | binding result [2] | Binder
binds |  | FLAG-tagged MIER1 ELM2-SANT (aa:171–350) (domain or fragment, UniProt Q8N108 171-350, looked up, The tag holds the protein on the anti-FLAG resin; it is cut off by TEV protease for elution, before gel filtration and SEC-MALS; also called isolated ELM2-SANT domain; source: HEK293F, co-transfected with HDAC1; anti-FLAG resin, TEV, Superdex S200; not shown: 10xHis-3xFLAG, N-terminal, kept) DYIPSEDWKKEIMVGSMFQAEIPVGICRYKENEKVYENDDQLLWDPEYLPEDKVIIFLKDASRRTGDEKGVEAIPEGSHIKDNEQALYELVKCNFDTEEALRRLRFNVKAAREELSVWTEEECRNFEQGLKAYGKDFHLIQANKVRTRSVGECVAFYYMWKKSERYDFFAQQTRFGKKKY
 | binds | PRKQLATKAAR[Lys(Me3)]SAPATGG-{Ethylenediamine-GABA-5‑FAM} (Histone H3 tail peptide, named H3 16–35; also called H3 histone tail bearing a K27me3 modification; source: synthetic peptide, bought: Cambridge Research Biochemicals) [H3 16–35 K27me3 peptide]
